Target: JMJD8-FLAG-HA (HeLa-JMJD8-FLAG-HA) (human) (UniProt Q96S16)
Experiment: SEC; gel filtration (Superdex 200) of total cell lysate of HeLa S3 cells stably expressing JMJD8-FLAG-HA; fractions immunoblotted with anti-FLAG

- stoichiometry N: 2
Substance: JMJD8-FLAG-HA (HeLa-JMJD8-FLAG-HA) (from UniProt Q96S16-1 24-264) (natural protein)

Source: paper PMC5684140
